{"source": "patent US20180100178A1", "about": "(CORNELL UNIVERSITY, published 2018)", "binders": {"B1": {"name": "wild-type recombinant mouse glutaminase C (GAC), residues 73-603, unlabeled (enzyme)", "chain": "SSSPSEILQELGKGGTPPQQQQQQQQQPGASPPAAPGPKDSPGETDAFGNSEGKEMVAAGDNKIKQGLLPSLEDLLFYTIAEGQEKIPVHKFITALKSTGLRTSDPRLKECMDMLRLTLQTTSDGVMLDKDLFKKCVQSNIVLLTQAFRRKFVIPDFMSFTSHIDELYESAKKQSGGKVADYIPQLAKFSPDLWGVSVCTVDGQRHSIGDTKVPFCLQSCVKPLKYAIAVNDLGTEYVHRYVGKEPSGLRFNKLFLNEDDKPHNPMVNAGAIVVTSLIKQGVNNAEKFDYVMQFLNKMAGNEYVGFSNATFQSERESGDRNFAIGYYLKEKKCFPEGTDMVGILDFYFQLCSIEVTCESASVMAATLANGGFCPITGERVLSPEAVRNTLSLMHSCGMYDFSGQFAFHVGLPAKSGVAGGILLVVPNVMGMMCWSPPLDKMGNSVKGIHFCHDLVSLCNFHNYDNLRHFAKKLDPRREGGDQRHSFGPLDYESLQQELALKDTVWKKVSPESSDDTSTTVVYRMESLGERS", "notes": "one subunit is described; also called WT GAC; unlabeled GAC; not shown: N-terminal His tag and thrombin cleavage site from pET28a"}, "B2": {"name": "Alexa Fluor 488-labeled recombinant mouse GAC (FRET donor) (enzyme)", "chain": "B1 chain", "modifications": "labeled with Alexa Fluor 488 succinimidyl ester (sites not given)", "notes": "not shown: N-terminal His tag and thrombin cleavage site from pET28a"}, "B3": {"name": "QSY9-labeled recombinant mouse GAC (FRET acceptor) (enzyme)", "chain": "B1 chain", "modifications": "labeled with QSY9 succinimidyl ester (sites not given)", "notes": "also called QSY9-GAC; QSY9-labeled GAC; not shown: N-terminal His tag and thrombin cleavage site from pET28a"}, "B4": {"name": "mouse GAC F327W mutant (residues 73-603) (enzyme)", "chain": "B1 chain with F255W", "notes": "as for B2"}, "B5": {"name": "mouse GAC F327W,D391K double mutant (residues 73-603) (enzyme)", "chain": "B1 chain with F255W, D319K", "notes": "Found as a dimer by SEC-MALS; also called GAC double mutant; dimeric GACF327W,D391K double mutant; not shown: N-terminal His tag and thrombin cleavage site from pET28a"}}, "key": {"[1]": {"molecular_target": "B3", "experiment": "FRET, exchange with excess unlabeled GAC"}, "[2]": {"molecular_target": "the molecule itself", "experiment": "SEC-MALS of 5 mg/ml protein, self-association (dimer/tetramer), without and after preincubation with BPTES; MW on a log axis [panel C]", "description": "(§1) LS=light scattering; MW=molecular weight. […] Points represent the mean and error bars the standard deviation of three independent experiments."}, "[3]": {"molecular_target": "B2", "experiment": "FRET exchange (competition): excess unlabeled GAC added to preformed 488-labeled GAC / QSY9-GAC complexes; displaced competitor is QSY9-GAC; with or without 100 mM phosphate or sulfate [panel A]"}, "[4]": {"molecular_target": "B3", "experiment": "FRET, self-association of labeled GAC in solution"}, "[5]": {"molecular_target": "B2", "experiment": "FRET time trace: 25 nM 488-labeled GAC (donor) + 75 nM QSY9-GAC (acceptor); 100 mM phosphate, sulfate or water added at 10 min [panel A]"}, "[6]": {"molecular_target": "the molecule itself", "experiment": "SEC-MALS of 5 mg/ml protein, self-association (dimer/tetramer), without and after preincubation with BPTES; MW on a log axis [panel D]", "description": "as §1"}, "[7]": {"molecular_target": "the molecule itself", "experiment": "SEC-MALS of 5 mg/ml protein, self-association, without and after preincubation with BPTES; MW on a log axis [panel B]", "description": "LS=light scattering; MW=molecular weight."}}, "note": "Positions count from the first letter of the chain named. Names may count otherwise."}
{"binder": "B1", "values": [{"measurement": "Specific activity of WT GAC without phosphate (mol Glu/min mol GAC), against [GAC]", "value": "specific activity (triangles, left axis) rises with [GAC] from about 90 at about 85 nM through about 400 at about 430 nM to about 500 at about 1000-1500 nM, flattening; no lower plateau inside the range (linear axis)"}, {"measurement": "binding result", "setting": "[1]", "value": "binds"}, {"measurement": "binding result", "setting": "[2]", "value": "binds"}, {"measurement": "binding result", "setting": "[3]", "value": "binds"}]}
{"binder": "B2", "values": [{"measurement": "binding result", "setting": "[4]", "value": "binds"}]}
{"binder": "B3", "values": [{"measurement": "binding result", "setting": "[5]", "value": "binds"}]}
{"binder": "B4", "values": [{"measurement": "binding result", "setting": "[6]", "value": "binds"}]}
{"binder": "B5", "values": [{"measurement": "binding result", "setting": "[7]", "value": "binds"}]}
